From the supplement of paper PMC10724198
± gives the standard deviation of the averaged measurements.

The sequences below were run on Saccharomyces cerevisiae (assay: protein stability index of tFT-peptide fusion (C-terminal peptide) (PSI (0-1 scale)); higher = more stable (slower turnover)). Settings: genetic background: wild type; temperature: 30 C.
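Note: PSI is a weighted mean of sequencing reads over stability bins, variants kept only with over 10 reads, mCherry proximal and sfGFP distal, peptide attached via GGGS linker.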

| Sequence | protein stability index |
| --- | --- |
| LLAHLVIWAPSR | 0.634 ± 0.091 |
| LLANYQRPSPLN | 0.705 ± 0.063 |
| LLAPPLPAVPSF | 0.731 ± 0.006 |
| LLFGMRPMLFSF | 0.576 ± 0.038 |
| LLFLVHGLCFSS | 0.543 ± 0.028 |
| LLFPALPPPPVR | 0.674 ± 0.028 |
| LLFPCSVGLGVV | 0.686 ± 0.077 |
| LLFRPTPCLPPL | 0.686 ± 0.022 |
| LLFRSPPPTVHS | 0.769 ± 0.088 |
| LLFSNRKVGQQF | 0.708 ± 0.011 |
| LLGRPILINRPL | 0.661 ± 0.0083 |
| LLGSGTVSGCAG | 0.642 ± 0.04 |
| LLHYPHVPLSPI | 0.662 ± 0.021 |
| LLICRLFLFTIW | 0.555 ± 0.12 |
| LLIPPLPSLAPP | 0.759 ± 0.052 |
| LLLFPLPLLPFH | 0.686 ± 0.037 |
| LLLGLPLDVGDS | 0.708 ± 0.066 |
| LLLRSSPVSLSR | 0.7162 ± 0.0034 |
| LLLTLVFSFLSC | 0.531 ± 0.0088 |
| LLPLLPAPRPPF | 0.691 ± 0.0063 |
| LLPPCYFFLTSP | 0.637 ± 0.093 |
| LLPPPPLPPLPL | 0.796 ± 0.1 |
| LLPPVLPPTLPP | 0.633 ± 0.0075 |
| LLPRPSLDPSPP | 0.682 ± 0.11 |
| LLPSLSPPPTPP | 0.655 ± 0.051 |
| LLPSSLPFPPLR | 0.72 ± 0.06 |

| Sequence | protein stability index |
| --- | --- |
| LLPYPAEPSPRR | 0.713 ± 0.013 |
| LLRLDGGAGRSV | 0.627 ± 0.079 |
| LLRPPAPPPLPT | 0.642 ± 0.17 |
| LLRRLILLQATW | 0.5677 ± 0.0053 |
| LLSGPPVPPSWS | 0.653 ± 0.19 |
| LLSLALFACSIC | 0.63 ± 0.023 |
| LLSLLLLSSSPP | 0.70828 ± 0.00034 |
| LLSNDNRIKTIR | 0.725 ± 0.047 |
| LLSPLFCYSSRS | 0.6457 ± 0.0013 |
| LLSPLLLLASLS | 0.534 ± 0.013 |
| LLSSPSVSPPPD | 0.6754 ± 0.0022 |
| LLSVSFVGWPLT | 0.634 ± 0.062 |
| LLTTGGRWWRRP | 0.669 ± 0.03 |
| LLVNSFLIFPPH | 0.68474 ± 0.00059 |
| LLVPCLQPPFRV | 0.622 ± 0.023 |
| LLVTPAPRSTHF | 0.648 ± 0.064 |
| LLWNFNLCHCEE | 0.701 ± 0.011 |
| LLYANDPTRPVI | 0.652 ± 0.015 |
| LMDIPGNPRSLY | 0.604 ± 0.072 |
| LMGDRRLFSFSV | 0.719 ± 0.12 |
| LMKSPGGTLTIR | 0.71 ± 0.053 |
| LMPPHPLFLSDI | 0.724 ± 0.012 |
| LMQTGVNNQNTT | 0.72 ± 0.035 |
| LMWPTSHLPQPQ | 0.734 ± 0.092 |
| LNDEKIKGKTTK | 0.732 ± 0.012 |
| LNGSRDEHKVMS | 0.674 ± 0.022 |

| Sequence | protein stability index |
| --- | --- |
| LNIPARVSGAVV | 0.636 ± 0.017 |
| LNLRIGDVMRGG | 0.682 ± 0.022 |
| LNNAIAGGSVGI | 0.702 ± 0.074 |
| LNSRQATLRPQT | 0.716 ± 0.021 |
| LNVVLTRTSVRY | 0.657 ± 0.041 |
| LNYRVLTKVDER | 0.717 ± 0.048 |
| LPAILALVPRYP | 0.674 ± 0.022 |
| LPAISSPIPPSL | 0.701 ± 0.048 |
| LPAPLGPRIPSL | 0.753 ± 0.15 |
| LPARFLIDFTRV | 0.688 ± 0.029 |
| LPATCFSPPSSS | 0.687 ± 0.057 |
| LPFLFTSFAPAA | 0.776 ± 0.081 |
| LPGEHSEFNYLL | 0.7198 ± 0.0036 |
| LPGGECSLKGQQ | 0.701 ± 0.079 |
| LPGTTFTPPVAS | 0.662 ± 0.008 |
| LPHCPLNVFPLV | 0.654 ± 0.034 |
| LPHLFLSVPSSP | 0.665 ± 0.038 |
| LPLDSPSRPLPP | 0.722 ± 0.011 |
| LPLFTIVPPFFF | 0.59 ± 0.011 |
| LPLPGSFTLNYP | 0.733 ± 0.013 |
| LPLPLLLFPPPH | 0.677 ± 0.041 |
| LPLRPPPSLLSR | 0.689 ± 0.064 |
| LPMGTRGPAPGP | 0.73 ± 0.12 |
| LPNLTIPSRAIA | 0.623 ± 0.0054 |
| LPPCLEYLRVLR | 0.658 ± 0.07 |
| LPPFSSPLSSLR | 0.693 ± 0.016 |

| Sequence | protein stability index |
| --- | --- |
| LPPHRPPAPDLS | 0.674 ± 0.049 |
| LPPLLPSLSHAR | 0.6459 ± 0.003 |
| LPPLPHLLSLYL | 0.658 ± 0.076 |
| LPPPLPPPPPPV | 0.651 ± 0.017 |
| LPPPLVPPLPSP | 0.7017 ± 0.0023 |
| LPPPPLLIPLPT | 0.605 ± 0.062 |
| LPPPPPASPPSP | 0.703 ± 0.01 |
| LPPPPPILHLPS | 0.6463 ± 0.005 |
| LPPPPPPPPPPP | 0.60887 ± 2.4e-05 |
| LPPPPPPSHPPP | 0.697 ± 0.018 |
| LPPPPSAPHPSP | 0.668 ± 0.023 |
| LPPPPYPEFYPC | 0.772 ± 0.0089 |
| LPPPRPLPRPCP | 0.748 ± 0.096 |
| LPPPRSLPPILS | 0.656 ± 0.017 |
| LPPRPSPPRRPP | 0.666 ± 0.016 |
| LPPSPPPPPRQS | 0.739 ± 0.013 |
| LPPSPPTPPQYT | 0.6977 ± 0.003 |
| LPPSSPLPPPPP | 0.77 ± 0.047 |
| LPRAGLVLSPLH | 0.661 ± 0.051 |
| LPRERSFRLYKA | 0.739 ± 0.016 |
| LPRPHARPPLSS | 0.583 ± 0.066 |
| LPRPPPLAGPPL | 0.734 ± 0.013 |
| LPRPPPPPPPSP | 0.827 ± 0.098 |
